Data on 4 molecules can be found in patent US20210139892, “COMPOSITIONS AND METHODS FOR DELIVERY OF RNA TO A CELL” (The Regents of the University of California, published 2021).

Series [1] addresses T1, U1A-ppTG21 conjugate (U1A Cys variant disulfide-linked to ppTG21 endosomolytic peptide); number of ppTG21 not … (Homo sapiens, UniProt P09012 SEQ:2-98).
T1 chain: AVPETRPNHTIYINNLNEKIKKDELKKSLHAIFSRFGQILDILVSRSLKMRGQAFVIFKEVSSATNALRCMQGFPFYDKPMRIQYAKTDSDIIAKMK
Nature of the series: BLI; biotin-RNA immobilised; 0.33-333 nM conjugate; not substantially bound. The note with it: label: 5' biotin; hairpin. The source says: (§1) Biolayer interferometry (BLI) was used to assess the capacity of Cas9 RNPs containing sgRNA variants to bind U1A (or U1A-ppTG21 conjugates) as well as to assess the persistence of any binding events. These assays approximated the experimental design described in Richardson et al. (Nat Biotechnol. 2016 March; 34(3):339-44. doi: 10.1038/nbt.3481). These experiments relied on a Cas9 protein covalently, site-specifically labeled with a biotin moiety, allowing loading onto a BLI sensor bearing streptavidin. The instrument used was an Octet Red 384. The buffer used was 20 mM HEPES, pH 7.5, 100 mM KCl, 10% Glycerol, 0.01 mg/ml Heparin, 0.01% IGEPAL. The loading step of the experiment used Cas9 RNP at 20 nM in the wells. U1A wells contained 100 nM, 330 nM, or 1 μM U1A. […] In contrast to the noSL RNP experiment, the SLabub RNP was markedly bound by the U1A, and the binding persisted for the ˜2000 s (˜33 min) duration of the dissociation phase (FIG. 15A). The SLabub RNP experiment was repeated using U1A-ppTG21 conjugate in the wells at concentrations spanning 100 nM to 6 μM (FIG. 15B).
(§2) The concentrations of U1A-ppTG21 conjugate in the wells covered the range of 0.33-333 nM. Substantial binding was observed between the U1 stem loop and the U1A-ppTG21 conjugate, and this binding persisted for the ˜2000 s (˜33 min) of the dissociation phase (FIG. 15C).
A general note: BLI is a label-free optical method that tracks binding on a fibre tip over time.

Series [2] addresses T2, U1A N-terminal RNA-binding domain (Y31H, Q36R; exact Cys variant used in BLI not stated) (Homo sapiens, UniProt P09012 SEQ:2-98).
T2 chain: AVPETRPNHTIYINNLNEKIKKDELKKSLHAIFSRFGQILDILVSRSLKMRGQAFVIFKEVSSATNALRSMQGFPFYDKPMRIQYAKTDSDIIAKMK
Kind of series: BLI; biotin-Cas9 RNP immobilised; 0.1-1 uM U1A; binding persists ~2000 s; 20 mM HEPES pH 7.5, 100 mM KCl, 0.01 mg/ml heparin. The note with it: tags: none; N-terminal Met removed in E. coli; sgRNA with three U1A stem-loop hairpins.
Excerpt: as §1

Series [3] concerns the target T1, U1A-ppTG21 conjugate (U1A Cys variant …). Nature of the series: BLI; biotin-Cas9 RNP immobilised; 0.1-6 uM conjugate; binding persists ~900 s. The note with it: sgRNA with three U1A stem-loop hairpins.
Excerpt: as §1

Series [4] shares this target. Nature of the series: BLI; biotin-RNA immobilised; 0.33-333 nM conjugate; binding persists ~2000 s. The note with it: label: 5' biotin; hairpin.
Excerpt: as §1, §2

Series [5] has as its target T2, U1A N-terminal RNA-binding domain …. Kind of series: BLI; biotin-Cas9 noSL RNP immobilised; 0.1-1 uM U1A; no substantial binding. The note with it: tags: none; N-terminal Met removed in E. coli; sgRNA scaffold, no U1A site.
Excerpt: as §1

In the case of AAUCCAUUCAUGUACCGGAUU (ssRNA) [U2 RNA stem loop negative control], the binding result in series [1] is on record as “no binding”.

B1: SLabub sgRNA (EMX1) (ssRNA)
RNA: GUCACCUCCAAUGACUAGGGGUUUAAGAGCUAUGGAUCAUUGCACUCCGAUCCAUAGCAAGUUUAAAUAAGGCUAGUCCGUUAUCAACUUGUCGAGGCUAAGUCGCAUUGCACUCCGCGACAGCACAAGCCCGCUGCCAUUGCACUCCGGCAGCAGGGAACUCGUCAAGUGGCACCGAGUCGGUGCUUUUUUU
In the case of B1, the binding result in series [2] and in series [3] was “binds” each time.

Take AAUCCAUUGCACUCCGGAUU (ssRNA) [U1 RNA stem loop 2]: the binding result in series [4] is recorded as “binds”.

B2: noSL sgRNA (EMX1) (ssRNA)
RNA: GUCACCUCCAAUGACUAGGGGUUUAAGAGCUAUGCUGGAAACAGCAUAGCAAGUUUAAAUAAGGCUAGUCCGUUAUCAACUUGAAAAAGUGGCACCGAGUCGGUGCUUUUUUU
For B2, the binding result in series [5] is reported as “no binding”.
